Data on six molecules can be found in patent US9958461B2, “Detection of protein to protein interactions” (THE GOVERNING COUNCIL OF THE UNIVERSITY OF TORONTO, priority 2013, dated 2018).

One experiment has as its target T1, EGFR-L858R (Homo sapiens, UniProt P00533, L858R).
T1 construct: with the advantage of testing full-length integral membrane proteins; (GGGGS)2 linker-Cub (human ubiquitin aa 35-76)-GAL4(1-147)-mNFkB(364-550) (C); expressed in transfected cells
The experiment in a line: MaMTH EGFR-interactor screen, lentiviral preys against EGFR-L858R bait (interaction score). Particulars: MaMTH interaction score of prey with EGFR-L858R bait. It is filed as cell-based. The procedure: (§1) After lentivirus harvest, target cells (stable 5×GAL4UAS-luciferase reporter-HEK293T cells) were infected at a multiplicity of infection (MOI) of around 0.3-0.4 to ensure single copy integration per cell. Cells were selected in puromycin for at least 48 h and transfected with either EGFR-wildtype or EGFR-L858R baits in triplicates. 24 h after transfection, cells were lysed and luciferase assays performed. On each set of interaction assays, various negative controls were included. To calculate a MaMTH-interaction scores, negative controls were averaged and the fold-change of luciferase activity compared to the averaged controls was calculated and defined as the interaction score.
(§2) Each set of experiments contains a defined set of negative controls in at least three replicates. Negative controls were chosen as such that there is a range of controls showing high-background luciferase activity (normally cytosolic proteins: Fabp5, Pex19) as well as medium-background luciferase activity (membrane-bound interactors: Pex7, GABBR2). Negative controls were averaged and the fold-change of luciferase activity was calculated. Using this method, we have a stringent cut-off and chose an interaction score >1 to be interacting proteins.
(§3) Our cut-off of 1 is based on fold-change difference in luciferase activity over averaged negative controls. Negative controls include cytosolic preys (which tend to promiscuously bind to many proteins), plasma membrane- and peroxisomal-prey proteins. In general, we chose stringent conditions by testing preys that tend to have high luciferase background with any bait tested, in order to generate high-confidence interaction data. […] Phosphorylated tyrosine residues on the receptor are typically docking sites for downstream cytoplasmic targets and recognized through SH2 or PTB domains^43.

Experiment [1] deals with EGFR-Wt. Description: MaMTH EGFR-interactor screen, lentiviral preys against EGFR-wildtype bait (interaction score). Particulars: ratio of EGFR-Wt mean to EGFR-L858R mean interaction score. It is filed as cell-based, human. On the procedure:
as §1, §2, §3

Experiment [2] concerns the target T2, EGFR-Wt (Homo sapiens, UniProt P00533).
T2 construct: with the advantage of testing full-length integral membrane proteins; (GGGGS)2 linker-Cub (human ubiquitin aa 35-76)-GAL4(1-147)-mNFkB(364-550) (C); expressed in transfected cells
The experiment is described as above. It is filed as cell-based. Particulars: MaMTH interaction score of prey with EGFR-Wt bait, mean. On the procedure:
as §1, §2, §3

B1: ZAP70 (protein, UniProt P43403 1-619, looked up)
Tyrosine-protein kinase ZAP-70: MPDPAAHLPFFYGSISRAEAEEHLKLAGMADGLFLLRQCLRSLGGYVLSLVHDVRFHHFPIERQLNGTYAIAGGKAHCGPAELCEFYSRDPDGLPCNLRKPCNRPSGLEPQPGVFDCLRDAMVRDYVRQTWKLEGEALEQAIISQAPQVEKLIATTAHERMPWYHSSLTREEAERKLYSGAQTDGKFLLRPRKEQGTYALSLIYGKTVYHYLISQDKAGKYCIPEGTKFDTLWQLVEYLKLKADGLIYCLKEACPNSSASNASGAAAPTLPAHPSTLTHPQRRIDTLNSDGYTPEPARITSPDKPRPMPMDTSVYESPYSDPEELKDKKLFLKRDNLLIADIELGCGNFGSVRQGVYRMRKKQIDVAIKVLKQGTEKADTEEMMREAQIMHQLDNPYIVRLIGVCQAEALMLVMEMAGGGPLHKFLVGKREEIPVSNVAELLHQVSMGMKYLEEKNFVHRDLAARNVLLVNRHYAKISDFGLSKALGADDSYYTARSAGKWPLKWYAPECINFRKFSSRSDVWSYGVTMWEALSYGQKPYKKMKGPEVMAFIEQGKRMECPPECPPELYALMSDCWIYKWEDRPDFLTVEQRMRACYYSLASKVEGPPGSTQKAEAACA
In the experiment with EGFR-L858R, B1 registered an EGFR-L858R mean of 16.20. Besides, the Wt/L858R in the experiment on EGFR-Wt [1] stood at 1.04. In addition, the EGFR-Wt mean with EGFR-Wt [2] is 16.92.

B2: Cdh1 (protein, UniProt P12830 155-882, looked up)
Cadherin-1: DWVIPPISCPENEKGPFPKNLVQIKSNKDKEGKVFYSITGQGADTPPVGVFIIERETGWLKVTEPLDRERIATYTLFSHAVSSNGNAVEDPMEILITVTDQNDNKPEFTQEVFKGSVMEGALPGTSVMEVTATDADDDVNTYNAAIAYTILSQDPELPDKNMFTINRNTGVISVVTTGLDRESFPTYTLVVQAADLQGEGLSTTATAVITVTDTNDNPPIFNPTTYKGQVPENEANVVITTLKVTDADAPNTPAWEAVYTILNDDGGQFVVTTNPVNNDGILKTAKGLDFEAKQQYILHVAVTNVVPFEVSLTTSTATVTVDVLDVNEAPIFVPPEKRVEVSEDFGVGQEITSYTAQEPDTFMEQKITYRIWRDTANWLEINPDTGAISTRAELDREDFEHVKNSTYTALIIATDNGSPVATGTGTLLLILSDVNDNAPIPEPRTIFFCERNPKPQVINIIDADLPPNTSPFTAELTHGASANWTIQYNDPTQESIILKPKMALEVGDYKINLKLMDNQNKDQVTTLEVSVCDCEGAAGVCRKAQPVEAGLQIPAILGILGGILALLILILLLLLFLRRRAVVKEPLLPPEDDTRDNVYYYDEEGGGEEDQDFDLSQLHRGLDARPEVTRNDVAPTLMSVPRYLPRPANPDEIGNFIDENLKAADTDPTAPPYDSLLVFDYEGSGSEAASLSSLNSSESDKDQDYDYLNEWGNRFKKLADMYGGGEDD
In the experiment with EGFR-L858R, B2 showed an EGFR-L858R mean of 2.27. Moreover, in the experiment with EGFR-Wt [1], the Wt/L858R amounted to 0.94. For the same molecule, in the experiment with EGFR-Wt [2], the EGFR-Wt mean came to 2.14.

B3: TAB1 (protein, UniProt Q15750 1-504, looked up)
TGF-beta-activated kinase 1 …: MAAQRRSLLQSEQQPSWTDDLPLCHLSGVGSASNRSYSADGKGTESHPPEDSWLKFRSENNCFLYGVFNGYDGNRVTNFVAQRLSAELLLGQLNAEHAEADVRRVLLQAFDVVERSFLESIDDALAEKASLQSQLPEGVPQHQLPPQYQKILERLKTLEREISGGAMAVVAVLLNNKLYVANVGTNRALLCKSTVDGLQVTQLNVDHTTENEDELFRLSQLGLDAGKIKQVGIICGQESTRRIGDYKVKYGYTDIDLLSAAKSKPIIAEPEIHGAQPLDGVTGFLVLMSEGLYKALEAAHGPGQANQEIAAMIDTEFAKQTSLDAVAQAVVDRVKRIHSDTFASGGERARFCPRHEDMTLLVRNFGYPLGEMSQPTPSPAPAAGGRVYPVSVPYSSAQSTSKTSVTLSLVMPSQGQMVNGAHSASTLDEATPTLTNQSPTLTLQSTNTHTQSSSSSSDGGLFRSRPAHSLPPGEDGRVEPYVDFAEFYRLWSVDHGEQSVVTAP
The molecule B3 displayed an EGFR-L858R mean with EGFR-L858R of 5.95. Moreover, the Wt/L858R in the experiment on EGFR-Wt [1] was 0.98. Further, in the experiment with EGFR-Wt [2], the EGFR-Wt mean is listed as 5.84.

B4: CAMLG (protein, UniProt P49069 1-296, looked up)
Guided entry of tail-anchored …: MESMAVATDGGERPGVPAGSGLSASQRRAELRRRKLLMNSEQRINRIMGFHRPGSGAEEESQTKSKQQDSDKLNSLSVPSVSKRVVLGDSVSTGTTDQQGGVAEVKGTQLGDKLDSFIKPPECSSDVNLELRQRNRGDLTADSVQRGSRHGLEQYLSRFEEAMKLRKQLISEKPSQEDGNTTEEFDSFRIFRLVGCALLALGVRAFVCKYLSIFAPFLTLQLAYMGLYKYFPKSEKKIKTTVLTAALLLSGIPAEVINRSMDTYSKMGEVFTDLCVYFFTFIFCHELLDYWGSEVP
For B4, in the experiment with EGFR-L858R, the EGFR-L858R mean was 7.17. Moreover, the Wt/L858R in the experiment with EGFR-Wt [1] was found to be 1.00. Besides, in the experiment with EGFR-Wt [2], the EGFR-Wt mean amounted to 7.16.

B5: ABL2 (protein, UniProt P42684 2-1182, looked up)
Tyrosine-protein kinase ABL2: GQQVGRVGEAPGLQQPQPRGIRGSSAARPSGRRRDPAGRTTETGFNIFTQHDHFASCVEDGFEGDKTGGSSPEALHRPYGCDVEPQALNEAIRWSSKENLLGATESDPNLFVALYDFVASGDNTLSITKGEKLRVLGYNQNGEWSEVRSKNGQGWVPSNYITPVNSLEKHSWYHGPVSRSAAEYLLSSLINGSFLVRESESSPGQLSISLRYEGRVYHYRINTTADGKVYVTAESRFSTLAELVHHHSTVADGLVTTLHYPAPKCNKPTVYGVSPIHDKWEMERTDITMKHKLGGGQYGEVYVGVWKKYSLTVAVKTLKEDTMEVEEFLKEAAVMKEIKHPNLVQLLGVCTLEPPFYIVTEYMPYGNLLDYLRECNREEVTAVVLLYMATQISSAMEYLEKKNFIHRDLAARNCLVGENHVVKVADFGLSRLMTGDTYTAHAGAKFPIKWTAPESLAYNTFSIKSDVWAFGVLLWEIATYGMSPYPGIDLSQVYDLLEKGYRMEQPEGCPPKVYELMRACWKWSPADRPSFAETHQAFETMFHDSSISEEVAEELGRAASSSSVVPYLPRLPILPSKTRTLKKQVENKENIEGAQDATENSASSLAPGFIRGAQASSGSPALPRKQRDKSPSSLLEDAKETCFTRDRKGGFFSSFMKKRNAPTPPKRSSSFREMENQPHKKYELTGNFSSVASLQHADGFSFTPAQQEANLVPPKCYGGSFAQRNLCNDDGGGGGGSGTAGGGWSGITGFFTPRLIKKTLGLRAGKPTASDDTSKPFPRSNSTSSMSSGLPEQDRMAMTLPRNCQRSKLQLERTVSTSSQPEENVDRANDMLPKKSEESAAPSRERPKAKLLPRGATALPLRTPSGDLAITEKDPPGVGVAGVAAAPKGKEKNGGARLGMAGVPEDGEQPGWPSPAKAAPVLPTTHNHKVPVLISPTLKHTPADVQLIGTDSQGNKFKLLSEHQVTSSGDKDRPRRVKPKCAPPPPPVMRLLQHPSICSDPTEEPTALTAGQSTSETQEGGKKAALGAVPISGKAGRPVMPPPQVPLPTSSISPAKMANGTAGTKVALRKTKQAAEKISADKISKEALLECADLLSSALTEPVPNSQLVDTGHQLLDYCSGYVDCIPQTRNKFAFREAVSKLELSLQELQVSSAAAGVPGTNPVLNNLLSCVQEISDVVQR
Take B5: the EGFR-L858R mean in the experiment with EGFR-L858R is listed as 4.47. Also, in the experiment with EGFR-Wt [1], the Wt/L858R is reported as 1.04. The same molecule registered an EGFR-Wt mean with EGFR-Wt [2] of 4.63.

B6: STAT5A (protein, UniProt P42229 1-794, looked up)
Signal transducer and …: MAGWIQAQQLQGDALRQMQVLYGQHFPIEVRHYLAQWIESQPWDAIDLDNPQDRAQATQLLEGLVQELQKKAEHQVGEDGFLLKIKLGHYATQLQKTYDRCPLELVRCIRHILYNEQRLVREANNCSSPAGILVDAMSQKHLQINQTFEELRLVTQDTENELKKLQQTQEYFIIQYQESLRIQAQFAQLAQLSPQERLSRETALQQKQVSLEAWLQREAQTLQQYRVELAEKHQKTLQLLRKQQTIILDDELIQWKRRQQLAGNGGPPEGSLDVLQSWCEKLAEIIWQNRQQIRRAEHLCQQLPIPGPVEEMLAEVNATITDIISALVTSTFIIEKQPPQVLKTQTKFAATVRLLVGGKLNVHMNPPQVKATIISEQQAKSLLKNENTRNECSGEILNNCCVMEYHQATGTLSAHFRNMSLKRIKRADRRGAESVTEEKFTVLFESQFSVGSNELVFQVKTLSLPVVVIVHGSQDHNATATVLWDNAFAEPGRVPFAVPDKVLWPQLCEALNMKFKAEVQSNRGLTKENLVFLAQKLFNNSSSHLEDYSGLSVSWSQFNRENLPGWNYTFWQWFDGVMEVLKKHHKPHWNDGAILGFVNKQQAHDLLINKPDGTFLLRFSDSEIGGITIAWKFDSPERNLWNLKPFTTRDFSIRSLADRLGDLSYLIYVFPDRPKDEVFSKYYTPVLAKAVDGYVKPQIKQVVPEFVNASADAGGSSATYMDQAPSPAVCPQAPYNMYPQNPDHVLDQDGEFDLDETMDVARHVEELLRRPMDSLDSRLSPPAGLFTSARGSLS
B6 registered an EGFR-L858R mean with EGFR-L858R of 3.26. Moreover, the Wt/L858R with EGFR-Wt [1] is 0.96. The EGFR-Wt mean with EGFR-Wt [2] came out at 3.12.
